Reference: patent US20070244048A1 (published 2007)
Where two headings read alike, the source gives them in different places. Non-standard residues stand in square brackets, D forms with d. No end group written: not given here. *: point of attachment. Succinimide(1-Et,3-yl) = CCN1C(=O)CC(*)C1=O; Palmitoyl = CCCCCCCCCCCCCCCC(=O)*; hArg = N=C(N)NCCCC[C@H](N)C(=O)O; dNle = CCCC[C@@H](N)C(=O)O

How the values were obtained:
[1] = target: T1, human NMUR1 (human, UniProt Q9HB89 1-426); test: 125I-hNMU-25 displacement, HEK cell membranes
T1 construct: whole, on cells; Stably expressed in cells (FLIPR); also called hNMUR1; human R1
T1 sequence (looked up): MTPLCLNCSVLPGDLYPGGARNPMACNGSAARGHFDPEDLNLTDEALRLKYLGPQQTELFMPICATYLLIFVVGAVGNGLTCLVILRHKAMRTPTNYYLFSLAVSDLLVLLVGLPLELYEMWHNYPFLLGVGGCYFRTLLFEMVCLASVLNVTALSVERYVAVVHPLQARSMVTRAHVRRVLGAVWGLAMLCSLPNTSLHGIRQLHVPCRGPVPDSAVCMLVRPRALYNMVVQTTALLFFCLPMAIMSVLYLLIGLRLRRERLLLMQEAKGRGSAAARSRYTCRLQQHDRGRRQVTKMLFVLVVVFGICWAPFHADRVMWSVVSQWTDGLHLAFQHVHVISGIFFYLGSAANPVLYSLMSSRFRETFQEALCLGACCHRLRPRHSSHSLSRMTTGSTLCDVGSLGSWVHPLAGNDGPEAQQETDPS
Protocol: (§1) Confluent cell monolayers expressing NMU receptors (the HEK cells described above) were harvested with phosphate buffered saline, collected by centrifugation, and resuspended in membrane buffer (50 mM TrisCl pH 7.4, 5 mM MgCl₂, 1× Protease Inhibitor Cocktail, 10 μM phosphoramidon). After the cell pellet was homogenized, the solution was centrifuged at 18,000 rpm for 20 minutes at 4° C. The pellet was resuspended in membrane buffer to yield a final concentration of 0.5-5 μg/μL of membrane and stored at −80° C.
(§2) Experiments were performed in assay buffer (25 mM TrisCl, pH 7.4, 10 mM MgCl₂, 2mM EDTA, 1× Protease Inhibitor Cocktail, 100 μg/mL Bacitricin, 10 μM phosphoramidon) in 200 μL volumes in a 96-well format using 2-5 μg of membrane and […] ¹²⁵I-hNMU-25 (about 12,000 cpm/well). For non-specific binding, 1 μM hNMU-25 was added. About 5 μL of peptides were added to measure antagonist activity, and the entire reaction was incubated at room temperature with shaking for 80 minutes. The reaction was terminated by rapid filtration through 0.3% poly-ethylenimine presoaked Millipore 96-well filter plates and washed with ice-cold buffer (5 mM TrisCl pH 7.4, 10 mM MgCl₂, 2.5 mM EDTA, 0.04% Triton X-100). Plates were air-dried overnight at room temperature and recovered radioactivity was determined by standard scintillation counting. IC₅₀ values were determined using GraphPad Prism software.
(§3) Concentration-response curves and radioligand-binding data were fitted using Prism (GraphPad Software). Results are summarized below in Tables 8 and 9.

[2] = target: T2, human NMUR2 (human, UniProt Q9GZQ4 1-415); test: 125I-hNMU-25 displacement, HEK cell membranes
T2 construct: whole, on cells; Stably expressed in cells (FLIPR); also called hNMUR2; human R2
T2 sequence (Q9GZQ4 whole entry): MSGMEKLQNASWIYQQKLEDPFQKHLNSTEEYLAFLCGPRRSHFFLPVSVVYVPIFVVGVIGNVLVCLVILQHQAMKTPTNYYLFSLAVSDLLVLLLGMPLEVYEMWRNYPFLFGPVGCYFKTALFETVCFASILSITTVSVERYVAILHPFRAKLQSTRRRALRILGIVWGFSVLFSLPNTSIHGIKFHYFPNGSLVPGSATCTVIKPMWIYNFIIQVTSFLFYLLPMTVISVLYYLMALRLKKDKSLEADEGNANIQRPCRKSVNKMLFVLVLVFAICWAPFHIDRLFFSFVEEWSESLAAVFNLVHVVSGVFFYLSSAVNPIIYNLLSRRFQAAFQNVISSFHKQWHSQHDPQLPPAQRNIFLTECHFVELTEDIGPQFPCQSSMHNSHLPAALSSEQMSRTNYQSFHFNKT
Protocol: as §1, §2, §3

[3] = target: T1, human NMUR1; test: cell-based or functional assay
[4] = target: T2, human NMUR2; test: cell-based or functional assay
[5] = target: T1, human NMUR1; test: cell-based or functional assay; remark: listed apart in the source
[6] = target: T2, human NMUR2; test: cell-based or functional assay; remark: listed apart in the source
[7] = target: T3, mouse NMUR1-ATG (mouse, UniProt O55040 1-428); test: cell-based or functional assay
T3 sequence (looked up): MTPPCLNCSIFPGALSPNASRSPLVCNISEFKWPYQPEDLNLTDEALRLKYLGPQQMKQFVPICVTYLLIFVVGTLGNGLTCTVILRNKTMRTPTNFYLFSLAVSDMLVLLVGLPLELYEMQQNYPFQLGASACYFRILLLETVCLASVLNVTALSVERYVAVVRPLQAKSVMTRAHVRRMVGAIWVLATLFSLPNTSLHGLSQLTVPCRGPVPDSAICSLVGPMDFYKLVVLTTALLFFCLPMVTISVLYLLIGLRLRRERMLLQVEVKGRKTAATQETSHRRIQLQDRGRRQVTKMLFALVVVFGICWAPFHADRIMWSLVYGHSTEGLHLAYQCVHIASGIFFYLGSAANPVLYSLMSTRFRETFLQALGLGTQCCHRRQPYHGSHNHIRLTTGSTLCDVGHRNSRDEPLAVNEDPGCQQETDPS

[8] = target: mouse NMUR2 (mouse, UniProt Q8BZ39 1-395); test: cell-based or functional assay
mouse NMUR2, sequence (Q8BZ39 whole entry): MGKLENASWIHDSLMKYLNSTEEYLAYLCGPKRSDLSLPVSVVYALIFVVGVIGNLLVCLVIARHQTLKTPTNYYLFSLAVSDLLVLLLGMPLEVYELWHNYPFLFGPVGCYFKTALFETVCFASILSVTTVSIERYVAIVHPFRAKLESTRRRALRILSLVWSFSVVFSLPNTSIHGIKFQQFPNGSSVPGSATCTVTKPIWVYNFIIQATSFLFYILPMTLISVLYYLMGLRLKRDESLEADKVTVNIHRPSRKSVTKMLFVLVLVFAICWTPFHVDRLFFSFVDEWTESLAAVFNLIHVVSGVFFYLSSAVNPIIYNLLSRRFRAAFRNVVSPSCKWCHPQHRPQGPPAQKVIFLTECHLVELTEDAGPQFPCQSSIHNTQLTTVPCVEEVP

[9] = target: T4, mouse NMUR1-CTG (mouse, UniProt O55040 1-428); test: cell-based or functional assay
T4 sequence (looked up): T3 sequence (looked up)

[10] = target: T5, rat NMUR1-TTG (rat, UniProt Q9JJI5 1-425); test: cell-based or functional assay
T5 sequence (looked up): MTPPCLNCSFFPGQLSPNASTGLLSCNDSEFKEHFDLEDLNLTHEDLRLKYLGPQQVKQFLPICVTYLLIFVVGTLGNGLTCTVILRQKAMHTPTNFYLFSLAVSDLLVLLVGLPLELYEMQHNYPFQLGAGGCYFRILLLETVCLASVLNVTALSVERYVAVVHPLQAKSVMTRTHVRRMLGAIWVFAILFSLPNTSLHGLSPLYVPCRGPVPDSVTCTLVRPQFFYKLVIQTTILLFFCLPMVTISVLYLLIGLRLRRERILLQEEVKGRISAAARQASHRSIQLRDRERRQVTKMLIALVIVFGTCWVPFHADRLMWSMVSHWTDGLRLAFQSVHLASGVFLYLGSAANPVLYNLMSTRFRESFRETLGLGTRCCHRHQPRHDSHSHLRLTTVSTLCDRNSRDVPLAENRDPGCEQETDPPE

[11] = target: rat NMUR2 (rat, UniProt Q9ESQ4 1-395); test: cell-based or functional assay
rat NMUR2, sequence (Q9ESQ4 whole entry): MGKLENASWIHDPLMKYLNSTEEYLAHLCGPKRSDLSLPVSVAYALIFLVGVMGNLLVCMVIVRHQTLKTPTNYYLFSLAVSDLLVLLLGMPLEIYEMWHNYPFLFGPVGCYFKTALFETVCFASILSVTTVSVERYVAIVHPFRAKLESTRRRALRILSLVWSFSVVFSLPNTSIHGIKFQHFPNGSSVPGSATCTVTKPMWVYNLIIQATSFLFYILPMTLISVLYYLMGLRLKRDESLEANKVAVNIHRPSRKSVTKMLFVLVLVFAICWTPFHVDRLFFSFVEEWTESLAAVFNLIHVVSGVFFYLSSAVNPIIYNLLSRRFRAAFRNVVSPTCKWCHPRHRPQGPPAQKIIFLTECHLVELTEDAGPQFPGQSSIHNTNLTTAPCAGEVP

[12] = target: T6, rat NMUR1-ATG (rat, UniProt Q9JJI5 1-425); test: cell-based or functional assay
T6 sequence (looked up): T5 sequence (looked up)

[13] = target: T1, human NMUR1; test: cell-based or functional assay; remark: listed apart in the source
[14] = target: T2, human NMUR2; test: cell-based or functional assay; remark: listed apart in the source

B1: neuromedin U receptor agonist N (peptide)
peptide: FALFRPRN-NH2
[1]
  % activity (binding): 38.4%
[2]
  % activity (binding): 100%
  IC50: 22 nM
[3]
  % activity: 87%
  EC50: 53 nM
[4]
  % activity: 100%
  EC50: 3.9 nM

B2: neuromedin U receptor agonist Q (peptide)
peptide: FRVDEEFQSPFASQSRGFWLFRPR[dNle]-NH2
modifications: N-terminus assumed
SMILES: CCCC[C@@H](NC(=O)[C@H](CCCNC(=N)N)NC(=O)[C@@H]1CCCN1C(=O)[C@H](CCCNC(=N)N)NC(=O)[C@H](Cc1ccccc1)NC(=O)[C@H](CC(C)C)NC(=O)[C@H](Cc1c[nH]c2ccccc12)NC(=O)[C@H](Cc1ccccc1)NC(=O)CNC(=O)[C@H](CCCNC(=N)N)NC(=O)[C@H](CO)NC(=O)[C@H](CCC(N)=O)NC(=O)[C@H](CO)NC(=O)[C@H](C)NC(=O)[C@H](Cc1ccccc1)NC(=O)[C@@H]1CCCN1C(=O)[C@H](CO)NC(=O)[C@H](CCC(N)=O)NC(=O)[C@H](Cc1ccccc1)NC(=O)[C@H](CCC(=O)O)NC(=O)[C@H](CCC(=O)O)NC(=O)[C@H](CC(=O)O)NC(=O)[C@@H](NC(=O)[C@H](CCCNC(=N)N)NC(=O)[C@@H](N)Cc1ccccc1)C(C)C)C(N)=O
[1]
  % activity (binding): 16%
[2]
  % activity (binding): 89%
  IC50: 12 nM
[3]
  % activity: 0%
  EC50: > 1000 nM
[4]
  % activity: 97%
  EC50: 18.3 nM

B3: neuromedin U receptor agonist C (peptide)
peptide: YFGWRPRN-NH2
[1]
  % activity (binding): 100%
  IC50: 0.42 nM
[2]
  % activity (binding): 0%
[5]
  % activity: 87%
  IC50 (nM), functional: 1.1 nM
[6]
  % activity: 0%
  IC50 (nM), functional: > 1000 nM

B4: neuromedin U receptor agonist I (peptide)
peptide: FWLFRP[hArg]N-NH2
modifications: N-terminus assumed
SMILES: CC(C)C[C@H](NC(=O)[C@H](Cc1c[nH]c2ccccc12)NC(=O)[C@@H](N)Cc1ccccc1)C(=O)N[C@@H](Cc1ccccc1)C(=O)N[C@@H](CCCNC(=N)N)C(=O)N1CCC[C@H]1C(=O)N[C@@H](CCCCNC(=N)N)C(=O)N[C@@H](CC(N)=O)C(N)=O
[1]
  % activity (binding): 23%
[2]
  % activity (binding): 90%
  IC50: 9.1 nM
[3]
  % activity: 7%
  EC50: > 1000 nM
[4]
  % activity: 99%
  EC50: 10 nM

B5: neuromedin U receptor agonist J (peptide)
peptide: FWLFRA[hArg]N-NH2
modifications: N-terminus assumed
SMILES: CC(C)C[C@H](NC(=O)[C@H](Cc1c[nH]c2ccccc12)NC(=O)[C@@H](N)Cc1ccccc1)C(=O)N[C@@H](Cc1ccccc1)C(=O)N[C@@H](CCCNC(=N)N)C(=O)N[C@@H](C)C(=O)N[C@@H](CCCCNC(=N)N)C(=O)N[C@@H](CC(N)=O)C(N)=O
[1]
  % activity (binding): 34%
[2]
  % activity (binding): 63%
  IC50: 150 nM
[3]
  % activity: 0%
  EC50: > 1000 nM
[4]
  % activity: 59%
  EC50: 160 nM

B6: neuromedin U receptor agonist D (peptide)
peptide: YF[dA]WRPRN-NH2
modifications: N-terminus assumed
SMILES: C[C@@H](NC(=O)[C@H](Cc1ccccc1)NC(=O)[C@@H](N)Cc1ccc(O)cc1)C(=O)N[C@@H](Cc1c[nH]c2ccccc12)C(=O)N[C@@H](CCCNC(=N)N)C(=O)N1CCC[C@H]1C(=O)N[C@@H](CCCNC(=N)N)C(=O)N[C@@H](CC(N)=O)C(N)=O
[1]
  % activity (binding): 100%
  IC50: 2.6 nM
[2]
  % activity (binding): 0%
[5]
  % activity: 96%
  IC50 (nM), functional: 1.5 nM
[6]
  % activity: 0%
  IC50 (nM), functional: > 1000 nM

B7: neuromedin U receptor agonist B (peptide)
peptide: YF[dL]WRPRN-NH2
modifications: N-terminus assumed
SMILES: CC(C)C[C@@H](NC(=O)[C@H](Cc1ccccc1)NC(=O)[C@@H](N)Cc1ccc(O)cc1)C(=O)N[C@@H](Cc1c[nH]c2ccccc12)C(=O)N[C@@H](CCCNC(=N)N)C(=O)N1CCC[C@H]1C(=O)N[C@@H](CCCNC(=N)N)C(=O)N[C@@H](CC(N)=O)C(N)=O
[1]
  % activity (binding): 96%
  IC50: 14 nM
[2]
  % activity (binding): 35%
[5]
  % activity: 103%
  IC50 (nM), functional: 9 nM
[6]
  % activity: 0%
  IC50 (nM), functional: > 1000 nM

B8: neuromedin U receptor agonist P (peptide)
peptide: FRVDEEFQSPFASQSRGFWLFRA[hArg]N-NH2
modifications: N-terminus assumed
SMILES: CC(C)C[C@H](NC(=O)[C@H](Cc1c[nH]c2ccccc12)NC(=O)[C@H](Cc1ccccc1)NC(=O)CNC(=O)[C@H](CCCNC(=N)N)NC(=O)[C@H](CO)NC(=O)[C@H](CCC(N)=O)NC(=O)[C@H](CO)NC(=O)[C@H](C)NC(=O)[C@H](Cc1ccccc1)NC(=O)[C@@H]1CCCN1C(=O)[C@H](CO)NC(=O)[C@H](CCC(N)=O)NC(=O)[C@H](Cc1ccccc1)NC(=O)[C@H](CCC(=O)O)NC(=O)[C@H](CCC(=O)O)NC(=O)[C@H](CC(=O)O)NC(=O)[C@@H](NC(=O)[C@H](CCCNC(=N)N)NC(=O)[C@@H](N)Cc1ccccc1)C(C)C)C(=O)N[C@@H](Cc1ccccc1)C(=O)N[C@@H](CCCNC(=N)N)C(=O)N[C@@H](C)C(=O)N[C@@H](CCCCNC(=N)N)C(=O)N[C@@H](CC(N)=O)C(N)=O
[1]
  % activity (binding): 1%
[2]
  % activity (binding): 81%
  IC50: 150 nM
[3]
  % activity: 11%
  EC50: 46 nM
[4]
  % activity: 100%
  EC50: 25 nM

B9: NMU24 (peptide)
peptide: Palmitoyl-C(Succinimide(1-Et,3-yl))FRVDEEFQSPFASQSRGYFLFRPRN-NH2
[7]
  % Activity (FLIPR): 81.4%
  EC50 (FLIPR): 1000 nM
[8]
  % Activity (FLIPR): 82.4%
  EC50 (FLIPR): 1000 nM
[9]
  % Activity (FLIPR): 56.1%
  EC50 (FLIPR): 591 nM
[10]
  % Activity (FLIPR): 67.7%
  EC50 (FLIPR): 222 nM
[11]
  % Activity (FLIPR): 52.2%
  EC50 (FLIPR): 986 nM
[12]
  % Activity (FLIPR): 80.8%
  EC50 (FLIPR): 236 nM
[13]
  % Activity (FLIPR): 34.4%
  EC50 (FLIPR): 1000 nM
[14]
  % Activity (FLIPR): 63.9%
  EC50 (FLIPR): 1000 nM
